This assay has as its target recombinant human PD-L1 protein (Item No. 10084-H08H, Sino Biological) (human) (UniProt Q9NZQ7). Nature of the assay: SPR, Biacore 8K, antibody captured on anti-human chip, huPD-L1 analyte, 1:1 model.

For orientation: Kd means the equilibrium constant for the complex coming apart. Broadly, the koff is a measure of how fast the partners let go of each other. One may read the kon as a measure of how fast the partners come together.

recombinant human PD-L1 protein (Item No. 10084-H08H, Sino Biological) (human), sequence (Q9NZQ7 19-238 limits assumed): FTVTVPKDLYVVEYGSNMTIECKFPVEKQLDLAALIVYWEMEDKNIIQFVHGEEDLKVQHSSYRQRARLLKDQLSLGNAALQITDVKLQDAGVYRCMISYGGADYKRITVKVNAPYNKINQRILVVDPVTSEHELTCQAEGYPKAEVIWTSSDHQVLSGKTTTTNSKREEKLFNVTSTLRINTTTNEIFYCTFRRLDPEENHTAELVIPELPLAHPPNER

Regarding MDX 1105 (antibody), the Kd was determined as 359 pM, the koff was 0.00203 s⁻¹ and the kon came out at 5.65e+06 M⁻¹ s⁻¹.

Source of the values: US20250074988A1.
